The data set can be described thus: In vivo epifluorescent imaging of labelled C3a after intranasal administration. The arrangement: species or system mouse. As for the experimental part: C3a (Complement Technologies) was labelled with VivoTag XL 680 fluorescent tag (Perkin Elmer) and purified according to manufacturer's instructions. A minimum of 10 μg of labelled C3a (0.4 mg/kg of body weight) was determined in a pilot experiment to be necessary for reliable detection of the fluorescent signal in live animals due to its significant attenuation by skull bones. Mice received 20 μl of PBS or 65 μM C3a-VivoTag (0.48 mg/kg of body weight) intranasally as described above. One and three hours later, mice were anesthetized with 2% isoflurane and imaged in the IVIS Lumina III Bio-imaging platform (Caliper Technologies). After imaging, mice were deeply anesthetized with isoflurane and killed by cervical dislocation for ex vivo imaging. Brains were quickly dissected from the skull and imaged using the same fluorescent filter sets. All mice and brains were imaged simultaneously with the PBS-treated control (acting as the tissue autofluorescence reference) placed in the middle, to minimize the potential confound of weaker illumination toward the sides of the observation field. Acquired images were processed and analysed using Living Image software (Caliper Technologies). Epifluorescent signal intensities are presented as radiant efficiency [(photons/sec/cm^2/sr)/(μW/cm^2)] after subtraction of the residual tissue autofluorescence signal defined by the PBS control.

“fluorescently labelled C3a: C3a (Complement Technologies) labelled with VivoTag XL 680 fluorescent tag”: the “time C3a is detectable in brain tissue after intranasal administration” value (20 μl of 65 μM C3a-VivoTag (0.48 mg/kg) intranasal, imaged at 1 and 3 h, live and ex vivo) is on record as “at least 3 hours”. The “delivery to the brain by intranasal administration” value (epifluorescent imaging in live animals) is given as “can be delivered to the mouse brain through intranasal administration”.

Values taken from patent US11266715B2, “C3A receptor agonists for use against ischemic brain injury, stroke, traumatic brain injury, spinal cord injury and neurodegenerative disorders” (priority 2016, dated 2022).
